Measurements: PMC10377887, “Individual Contributions of Amido Acid Residues Tyr122, Ile168, and Asp173 to the Activity and Substrate Specificity of Human DNA Dioxygenase ABH2”

Target: T1, ABH2 WT (human, UniProt Q6NS38 1-261)
T1 sequence: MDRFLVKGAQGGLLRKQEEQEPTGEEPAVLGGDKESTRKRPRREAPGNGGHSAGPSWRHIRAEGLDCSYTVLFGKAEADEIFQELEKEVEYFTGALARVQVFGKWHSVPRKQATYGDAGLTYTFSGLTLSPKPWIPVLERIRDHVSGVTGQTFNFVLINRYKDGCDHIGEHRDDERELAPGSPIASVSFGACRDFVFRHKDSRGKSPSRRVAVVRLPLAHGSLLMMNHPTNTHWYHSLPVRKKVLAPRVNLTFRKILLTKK
Experiment: EMSA; 0.5 mM αKG, 10 mM Mg2+, 2 mM ascorbate; EMSA: 50 mM Tris-HCl pH 8.0, 50 mM KCl, 10 mM MgCl2, 0.5 mM αKG, 2 mM Na ascorbate; 1.2 µM DNA, 0.4-12.8 µM protein; 10 min 37 °C then 5 min on ice; 10% native
Details: protein: recombinant; tags: N-terminal His6; label: 5'-FAM on strand 1; blunt

| Binder | Kd [nM] |
| --- | --- |
| m3C (dsDNA, N3-methylcytosine at position 12 of strand 1) DNA 1: AGTTCAATGATCTTCAT DNA 2: ATGAAGATCATTGAACT | 3500 ± 100 |
| m1A (dsDNA, N1-methyladenine at position 10 of strand 1) DNA 1: AGTTCAATGATCTTCAT DNA 2: ATGAAGATCATTGAACT | 2450 ± 70 |
